Data taken from patent US20230303648A1 (OSE IMMUNOTHERAPEUTICS, published 2023).
Values belong to the binder of their own block, whether it stands above or below them.

Experiments:
[1] = target: T1, CD127 recombinant protein (Histidine tagged, Sino ref 10975-H08H) (UniProt P16871 21-239); test: sandwich ELISA, PD-1 immobilised, molecule preincubated with His-tagged CD127, anti-His-biotin + streptavidin-peroxidase, 450 nm
T1 construct: bought; used in the CD127 sandwich ELISA; also called CD127 receptor; IL-7Ralpha; not shown: histidine tag
T1 sequence (looked up): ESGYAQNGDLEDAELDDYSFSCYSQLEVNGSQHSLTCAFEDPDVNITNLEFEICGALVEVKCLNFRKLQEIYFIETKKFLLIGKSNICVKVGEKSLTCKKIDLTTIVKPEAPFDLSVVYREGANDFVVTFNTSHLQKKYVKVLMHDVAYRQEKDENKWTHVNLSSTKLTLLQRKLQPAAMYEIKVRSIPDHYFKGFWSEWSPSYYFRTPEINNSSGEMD
Experimental: Colorimetry was determined at 450 nm using TMB substrate. […] C.
Colorimetry was determined at 450 nm using TMB substrate.

[2] = target: T2, recombinant human PD-1 (rPD1; Sino Biologicals, reference 10377-H08H) (human, UniProt Q15116 25-167); test: ELISA: PD-1 immobilised, anti-human Fc peroxidase detection
T2 construct: bought; also called hPD1; PD-1 receptor
Experimental: A. PD-1 binding ELISA assay. Human recombinant PD-1 (rPD1) protein was immobilized, and antibodies were added at different concentrations. Revelation was performed with an anti-human Fc antibody coupled to peroxidase. Colorimetry was determined at 450 nm using TMB substrate. The anti PD-1 with 1 (anti PD-1*1 ▲ grey) or 2 anti PD-1 arms (anti PD-1*2 ◆) were tested as control. […] All constructions tested comprise a […] linker between the Fc and IL-7 domain.

[3] = target: T3, biotinylated recombinant human PD-1 (human, UniProt Q15116 25-167, limits assumed, biotinylated (site not stated)); test: competition ELISA: PD-L1 immobilised (competitor), biotinylated PD-1 at 0.6 µg/mL premixed with the molecule
T3 construct: used in solution in the PD-1/PD-L1 antagonist ELISA; also called PD-1 receptor

[4] = target: T4, CD132 receptor (Sinobiological 10555-H08B) (UniProt P31785 23-254); test: Biacore, steady-state model: CD127 immobilised, IgG4 alone injected, then CD132 at 31.25-500 nM; baseline of CD127 with CD132 in the absence of IL-7
T4 construct: bought; analyte in the Biacore CD132 assay; also called common gamma chain
T4 sequence (looked up): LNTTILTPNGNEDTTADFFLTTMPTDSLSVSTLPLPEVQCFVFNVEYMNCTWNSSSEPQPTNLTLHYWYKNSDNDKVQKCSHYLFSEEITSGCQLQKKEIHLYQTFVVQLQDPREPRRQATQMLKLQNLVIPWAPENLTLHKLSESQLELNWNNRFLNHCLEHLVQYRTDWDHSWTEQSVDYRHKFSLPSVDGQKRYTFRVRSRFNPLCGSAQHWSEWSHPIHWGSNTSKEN

T2 sequence (Q15116 25-167 limits assumed): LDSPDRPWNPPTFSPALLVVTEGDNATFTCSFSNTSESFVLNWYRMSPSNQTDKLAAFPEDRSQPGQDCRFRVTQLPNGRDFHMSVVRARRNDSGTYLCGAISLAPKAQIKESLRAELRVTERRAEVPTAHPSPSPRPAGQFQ
T3 sequence (Q15116 25-167 limits assumed): as above

EC50 (read off the curve) [1]: ~0.05 µg/mL
B1: anti PD-1 W142H bifunctional molecule with an isotype IgG1m + YTE (grey circle; no label printed on the sheet, name taken from legend paragraph 41) (other)
heavy: QIQLVQSGSELKKPGASVKVSCKASGYTFTHYAMNWVRQAPGQGLEWMGWINTNTGEPTYAQGFTGRFVFSLDTSVSTAYLQISSLKAEDTAVYYCAREREPGMDNWGQGTLVTVSSASTKGPSVFPLAPSSKSTSGGTAALGCLVKDYFPEPVTVSWNSGALTSGVHTFPAVLQSSGLYSLSSVVTVPSSSLGTQTYICNVNHKPSNTKVDKKVEPKSCDKTHTCPPCPAPELLGGPSVFLFPPKPKDTLYITREPEVTCVVVDVSHEDPEVKFNWYVDGVEVHNAKTKPREEQYASTYRVVSVLTVLHQDWLNGKEYKCKVSNKALPAPIEKTISKAKGQPREPQVYTLPPSRDELTKNQVSLTCLVKGFYPSDIAVEWESNGQPENNYKTTPPVLDSDGSFFLYSKLTVDKSRWQQGNVFSCSVMHEALHNHYTQKSLSLSPGKGGGGSGGGGSGGGGSDCDIEGKDGKQYESVLMVSIDQLLDSMKEIGSNCLNNEFNFFKRHICDANKEGMFLFRAARKLRQFLKMNSTGDFDLHLLKVSEGTTILLNCTGQVKGRKPAALGEAQPTKSLEENKSLKEQKKLNDLCFLKRLLQEIKTCHNKILMGTKEH
light: DVVMTQSPLSLPVTLGQPASISCRSSQSLVHANTNTYLEWYQQRPGQSPRLLIYKVSNRFSGVPDRFSGSGSGTDFTLKISRVEAEDVGVYYCFQGTHVPNTFGQGTKLEIKRTVAAPSVFIFPPSDEQLKSGTASVVCLLNNFYPREAKVQWKVDNALQSGNSQESVTEQDSKDSTYSLSSTLTLSKADYEKHKVYACEVTHQGLSSPVTKSFNRGEC
notes: also called anti PD-1 IL-7 W142H IgG1m + YTE

EC50 [2]: 0.238 nM
EC50 [3]: 5.01 nM
B2: anti-PD-1*1 (control construction, one anti PD-1 arm, devoid of IL-7 variant) (antibody, human IgG1, kappa, N297A)
heavy: QIQLVQSGSELKKPGASVKVSCKASGYTFTHYAMNWVRQAPGQGLEWMGWINTNTGEPTYAQGFTGRFVFSLDTSVSTAYLQISSLKAEDTAVYYCAREREPGMDNWGQGTLVTVSSASTKGPSVFPLAPSSKSTSGGTAALGCLVKDYFPEPVTVSWNSGALTSGVHTFPAVLQSSGLYSLSSVVTVPSSSLGTQTYICNVNHKPSNTKVDKKVEPKSCDKTHTCPPCPAPELLGGPSVFLFPPKPKDTLMISRTPEVTCVVVDVSHEDPEVKFNWYVDGVEVHNAKTKPREEQYASTYRVVSVLTVLHQDWLNGKEYKCKVSNKALPAPIEKTISKAKGQPREPQVYTLPPCRDELTKNQVSLWCLVKGFYPSDIAVEWESNGQPENNYKTTPPVLDSDGSFFLYSKLTVDKSRWQQGNVFSCSVMHEALHNHYTQKSLSLSPGK
chain: DKTHTCPPCPAPELLGGPSVFLFPPKPKDTLMISRTPEVTCVVVDVSHEDPEVKFNWYVDGVEVHNAKTKPREEQYASTYRVVSVLTVLHQDWLNGKEYKCKVSNKALPAPIEKTISKAKGQPREPQVYTLPPCRDELTKNQVSLWCLVKGFYPSDIAVEWESNGQPENNYKTTPPVLDSDGSFFLYSKLTVDKSRWQQGNVFSCSVMHEALHNHYTQKSLSLSPGK
light: B1 light
notes: one-armed antibody, IgG1 N298A

EC50 [2]: 0.021 nM
B3: anti-PD1*2 (control antibody without any IL7) (antibody, IgG4, V domains shown)
VH: QIQLVQSGSELKKPGASVKVSCKASGYTFTHYAMNWVRQAPGQGLEWMGWINTNTGEPTYAQGFTGRFVFSLDTSVSTAYLQISSLKAEDTAVYYCAREREPGMDNWGQGTLVTVSS
VL: DVVMTQSPLSLPVTLGQPASISCRSSQSLVHANTNTYLEWYQQRPGQSPRLLIYKVSNRFSGVPDRFSGSGSGTDFTLKISRVEAEDVGVYYCFQGTHVPNTFGQGTKLEIKR
notes: two anti PD-1 arms

Kd [4]: 2500 nM
B4: CD127 (Sinobiological, 10975-H03H-50) (receptor, UniProt P16871 21-239, looked up)
chain: T1 sequence (looked up)
notes: bought; immobilised on the CM5 chip in the Biacore assays; also called CD127 receptor
